{"source": "patent US20140086924A1", "about": "(UNIVERSITY OF MASSACHUSETTS, published 2014)", "binders": {"B1": {"name": "XIAP BIR3 fragment (Ser 261 to Gln 336) (other, human, UniProt P98170 261-336, looked up)", "chain": "SMADYEARIFTFGTWIYSVNKEQLARAGFYALGEGDKVKCFHCGGGLTDWKPSEDPWEQHAKWYPGCKYLLEQKGQ", "notes": "range 261-336; 35S-labelled, in vitro translated"}, "B2": {"name": "shorter cell permeable Survivin peptide (Antennapedia carrier sequence fused to Survivin K79-G83) (peptide)", "peptide": "RQIKIWFQNRRMKWKKKHSSG"}, "B3": {"name": "Survivin peptide Lysine 79-Lysine 90 (peptide)", "peptide": "KHSSGCAFLSVK", "notes": "Called both synthetic and recombinant (expressed in E. coli) in the same paragraph; also called K79-K90"}, "B4": {"name": "Survivin core sequence peptide Lys 79-Leu 87 (peptide)", "peptide": "KHSSGCAFL", "notes": "Synthetic, immobilized on plastic microtiter plates; also called Survivin peptide (K79-L87)"}, "B5": {"name": "Survivin Lys 79-Leu 87 peptide with alanine substitution of Lys 79 (peptide)", "peptide": "AHSSGCAFL", "notes": "also called K79A"}, "B6": {"name": "Survivin Lys 79-Leu 87 peptide with alanine substitution of Phe 86 (peptide)", "peptide": "KHSSGCAAL", "notes": "also called F86A"}, "B7": {"name": "Survivin Lys 79-Leu 87 peptide with alanine substitution of Leu 87 (peptide)", "peptide": "KHSSGCAFA", "notes": "also called L87A"}, "B8": {"name": "XIAP BIR2 fragment (Arg 124 to Pro 260) (other, human, UniProt P98170 124-260, looked up)", "chain": "RDHFALDRPSETHADYLLRTGQVVDISDTIYPRNPAMYSEEARLKSFQNWPDYAHLTPRELASAGLYYTGIGDQVQCFCCGGKLKNWEPCDRAWSEHRRHFPNCFFVLGRNLNIRSESDAVSSDRNFPNSTNLPRNP", "notes": "range 124-260; 35S-labelled, in vitro translated"}, "B9": {"name": "P31 survivin peptide (Antennapedia carrier sequence fused to Survivin K79-L87) (peptide)", "peptide": "Biotin-RQIKIWFQNRRMKWKKKHSSGCAFL", "notes": "also called Survivin cell permeable peptide"}, "B10": {"name": "wild type Survivin peptide 77 to 91 (peptide)", "peptide": "Biotin-HKKHSSGCAFLSVKK", "notes": "Immobilized on streptavidin coated Biacore chips; also called wild type peptide"}, "B11": {"name": "C84A mutant Survivin 77-91 peptide (peptide)", "peptide": "Biotin-HKKHSSGAAFLSVKK", "notes": "Immobilized on streptavidin coated Biacore chips; also called C84A peptide"}, "B12": {"name": "Survivin Ile74-Leu87 peptide (peptide)", "peptide": "IDDHKKHSSGCAFL", "notes": "Immobilized on Sulfolink Coupling Gel; also called Survivin peptide (Ile74-Leu87)"}}, "key": {"[1]": {"molecular_target": "T1, GST-Hsp90 (amino acids 1-732) (human, UniProt P07900 1-732)", "T1 construct": "also called Sepharose-GST-Hsp90; GST fusion of full length Hsp90; not shown: glutathione S-transferase (GST) frame of vector pGex-4T3", "assay": "pull-down of 35S in vitro translated XIAP BIR3 with GST-Hsp90, autoradiography", "text": "(§1) The cDNAs for XIAP and XIAP Baculovirus IAP Repeats (BIR) domains (BIR1, Met 1 to Ser 123; BIR2, Arg 124 to Pro 260; and BIR3, Ser 261 to Gln 336) were obtained from retro-transcription (SuperScript™ First Strand Synthesis System for RT-PCR, Invitrogen) of RNA extracted from HeLa cells (TRI Reagent™, Molecular Research Center Inc.), amplified by PCR, and cloned in pcDNA3 vector (Invitrogen). pcDNA3-XIAP and pcDNA3-XIAP BIR domains were translated in vitro using the TNT™ Quick Coupled Transcription/Translation System (Promega) in the presence of ³⁵S labeled methionine (Amersham), and 2, 5, and 8 μl of the reaction were incubated with 10 μg GST or GST fusion proteins as described above.\n(§2) pcDNA3-XIAP and pcDNA3-XIAP BIR domains were translated in vitro as described in Example 4. […] GST-Hsp90 or GST was mixed with ³⁵S in vitro translated XIAP or its individual Baculovirus IAP Repeats: BIR1, BIR2, and BIR3. Reactions were centrifuged and proteins that associated with the pellet were detected by autoradiography."}, "full length Hsp90alpha [2]": {"molecular_target": "T2, full length Hsp90alpha (human, UniProt P07900 1-732)", "T2 construct": "also called r-Hsp90; rHsp90", "assay": "competition ELISA, peptide inhibits the binding of recombinant survivin to Hsp90"}, "full length Hsp90alpha [3]": {"molecular_target": "T2, full length Hsp90alpha", "assay": "competition ELISA: peptide (20 µg/ml) preincubated with Hsp90, then added to immobilized full length Survivin (the competitor)", "protocol": "(§3) ELISA experiments were performed by immobilizing recombinant Survivin (r-Survivin) ([…]) or recombinant Hsp90 (r-Hsp90) (10 μg/ml) on plastic microtiter wells (Immulon™-2, Dynatech Laboratories, Chantilly, Va.) using bicarbonate buffer, pH 9.5 (100 μl/well) for 18 hours at 4° C. Bound protein was blocked with 3% gelatin for 1 hour at 37° C., rinsed with washing buffer (TBS pH 7.4, 0.1% Tween™, 0.1% BSA) and incubated for 1 hour at 37° C. with different concentrations of a test protein to determine if the test protein bound the immobilized protein.\nELISA experiments were performed essentially as in Example 2 with the following variations. 20 μg/ml of each recombinant Survivin peptide (expressed in E. coli) was preincubated with Hsp90 at 2.5 mg/ml for 16 hours at 4° C. After binding and blocking of full length Survivin to wells in a microtiter plate, the preincubated mixtures of Hsp90 and Survivin peptides were added to the wells and incubated for 1 hour at 37° C. Wells were washed, incubated with primary antibody, washed again, and bound antibody was quantified as described above. Each experiment was repeated three times and the standard deviation is shown. The twelve amino acid Survivin peptide including Lysine 79-Lysine 90 (K79-K90; SEQ ID NO:3) was an especially effective inhibitor of Hsp90-Survivin binding interactions."}, "full length Hsp90alpha [4]": {"molecular_target": "T2, full length Hsp90alpha", "assay": "ELISA, peptide immobilized, recombinant Hsp90 added, detection with anti-Hsp90 (n=2); no blank bar on the sheet", "protocol": "Indicated synthetic peptides from the Survivin core sequence Lys 79-Leu 87 (SEQ ID NO:24) were synthesized carrying single alanine substitutions at each indicated position (alanine scanning mutagenesis). Individual peptides were immobilized at indicated increasing concentrations on plastic microtiter plates, incubated with recombinant Hsp90, and binding to the various substrates was determined with an antibody to Hsp90 by ELISA and quantified by absorbance at OD₄₀₅. […] In contrast, no differences were observed between the wild type peptide sequence and alanine substitutions of the residues flanking this sequence, Lys 79, Ala 85, Phe 86, and Leu 87."}, "[5]": {"molecular_target": "T1, GST-Hsp90 (amino acids 1-732)", "assay": "pull-down of 35S in vitro translated XIAP BIR2 with GST-Hsp90, autoradiography", "text": "as §1, §2"}, "[6]": {"molecular_target": "T3, GST-C-Hsp90 (amino acids 629-732 of SEQ ID NO:21) (human, UniProt A5A6K9 630-733 (Pan troglodytes entry))", "T3 construct": "not shown: glutathione S-transferase (GST) frame of vector pGex-4T3", "T3 sequence (A5A6K9 630-733)": "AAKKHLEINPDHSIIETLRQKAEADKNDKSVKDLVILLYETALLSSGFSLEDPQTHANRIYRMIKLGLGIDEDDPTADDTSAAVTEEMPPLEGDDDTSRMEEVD", "assay": "ELISA, peptide immobilized at rising concentrations, Hsp90 C-terminal fragment added, detection with anti-Hsp90", "protocol": "as §3\n(§4) FIGS. 24A and 24B identify the location of P31 peptide's binding site as the N-terminus domain of Hsp90. The generation of recombinant Hsp90 fragments of the N-terminus or C-terminus is described in Example 3. ELISA experiments were performed as described in Example 2, except the indicated increasing concentrations of the P31 peptide (squares; SEQ ID NO:19) or control P33 peptide (circles; SEQ ID NO:25) were immobilized on plastic microtiter plates and incubated with the indicated Hsp90 N-terminal and C-terminal fragments. After washing, binding of the individual Hsp90 fragments to the immobilized peptides was detected with an antibody to Hsp90. Antibody to the C-terminal and N-terminal fragments of Hsp90 were obtained from BD/Transduction Laboratories and Santa Cruz Biotechnology, Inc. (Santa Cruz, Calif.), respectively."}, "[7]": {"molecular_target": "T4, GST-N-Hsp90 (amino acids 1-272 of SEQ ID NO:21) (human, UniProt O02705 1-273 (pig entry))", "T4 construct": "also called N-terminal domain of Hsp90; Hsp90 N-terminal fragment; not shown: glutathione S-transferase (GST) frame of vector pGex-4T3", "assay": "ELISA, peptide immobilized at rising concentrations, Hsp90 N-terminal fragment added, detection with anti-Hsp90", "protocol": "as §3, §4"}, "full length Hsp90alpha [8]": {"molecular_target": "T2, full length Hsp90alpha", "assay": "surface plasmon resonance, biotin peptide on streptavidin chip, r-Hsp90 injected", "protocol": "Wild type Survivin peptide 77 to 91 (SEQ ID NO:22) or the corresponding C84A mutant 77-91 peptide ([…]; SEQ ID NO:23) was synthesized with an N-terminal biotin and immobilized on streptavidin coated chips (SA5) purchased from Biacore Inc. (Piscataway, N.J.). Increasing concentrations (100 nM-10 μM) of purified r-Hsp90 suspended in 10 mM HEPES, 150 mM NaCl, 3 mM EDTA, 0.005% polysorbate-20, 1 mM DTT, were then injected in […] over the immobilized peptides. A constant flow rate of […] was maintained, and the dissociation phase was followed for 300 seconds. Surfaces were regenerated using […] of 1 M NaCl/50 mM NaOH after each dissociation phase. A new injection cycle was initiated only after 10 min post-regeneration to ensure complete removal of NaCl and NaOH. The collected data were analyzed using the Biaeval 3.0 software package from Biacore Inc.\nSensorgrams (FIG. 10B) indicate binding of the Survivin peptides to Hsp90, measured by an increase in surface plasmon resonance during analyte flow over the chip surface, with the nonspecific signal from the biotin-only surface subtracted."}, "Hsp 27": {"molecular_target": "T5, Hsp 27 (UniProt P04792 1-205)", "T5 construct": "Endogenous protein of Raji cells", "assay": "affinity chromatography of Raji cell extracts on immobilized peptide, Western blot", "text": "A Survivin Ile⁷⁴-Leu⁸⁷ peptide (SEQ ID NO:4) containing a binding site for Hsp90 was immobilized onto a Sulfolink™ Coupling Gel (Pierce, Rockport, Ill.), and used to fractionate Raji cell extracts. Proteins were identified in the flow trough (FT) or eluate (E) by Western blotting with the indicated antibodies. Hsp90 and Hsp70 clearly bound the Survivin peptide including residues Ile⁷⁴-Leu⁸⁷. The anti-Hsp70 antibodies were obtained from Abcam, Cambridge, Mass. (cat. No. ab6535)."}}, "note": "Ends that are not written are not given here. * marks the point of attachment. Biotin = O=C1N[C@H]2[C@H](CS[C@H]2CCCCC(=O)*)N1", "data": [{"binder": "B1", "values": [{"measurement": "binding result", "setting": "[1]", "result": "no binding"}]}, {"binder": "B2", "values": [{"measurement": "binding result", "setting": "full length Hsp90alpha [2]", "result": "binds"}]}, {"binder": "B3", "values": [{"measurement": "binding result", "setting": "full length Hsp90alpha [3]", "result": "binds"}]}, {"binder": "B4", "values": [{"measurement": "binding result", "setting": "full length Hsp90alpha [4]", "result": "binds"}]}, {"binder": "B5", "values": [{"measurement": "binding result", "setting": "full length Hsp90alpha [4]", "result": "binds"}]}, {"binder": "B6", "values": [{"measurement": "binding result", "setting": "full length Hsp90alpha [4]", "result": "binds"}]}, {"binder": "B7", "values": [{"measurement": "binding result", "setting": "full length Hsp90alpha [4]", "result": "binds"}]}, {"binder": "B8", "values": [{"measurement": "binding result", "setting": "[5]", "result": "no binding"}]}, {"binder": "B9", "values": [{"measurement": "binding result", "setting": "[6]", "result": "no binding (tested: 0.25 mg/ml)"}, {"measurement": "binding result", "setting": "full length Hsp90alpha [2]", "result": "binds"}, {"measurement": "binding result", "setting": "[7]", "result": "binds"}]}, {"binder": "B10", "values": [{"measurement": "Kd", "setting": "full length Hsp90alpha [8]", "result": 83.8, "unit": "nM"}, {"measurement": "off-rate, fold slower than the C84A peptide (SEQ ID NO:23)", "setting": "full length Hsp90alpha [8]", "result": 10, "unit": "fold"}]}, {"binder": "B11", "values": [{"measurement": "binding result", "setting": "full length Hsp90alpha [8]", "result": "binds"}]}, {"binder": "B12", "values": [{"measurement": "binding result", "setting": "Hsp 27", "result": "no binding"}]}]}
